In test [1] the target is T1, human tyrosinase prepared using truncated gene (TMRL) (Homo sapiens, UniProt P14679).
T1 construct: The truncated version is defined as a gene whose corresponding protein extends from the N-terminus to the amino acid 472 or lower; made in house; host or cells: HIGHFIVE (BTI-TN-5B1-4) insect cells, baculovirus (PFASTBAC)
T1 sequence (P14679 19-472 limits assumed): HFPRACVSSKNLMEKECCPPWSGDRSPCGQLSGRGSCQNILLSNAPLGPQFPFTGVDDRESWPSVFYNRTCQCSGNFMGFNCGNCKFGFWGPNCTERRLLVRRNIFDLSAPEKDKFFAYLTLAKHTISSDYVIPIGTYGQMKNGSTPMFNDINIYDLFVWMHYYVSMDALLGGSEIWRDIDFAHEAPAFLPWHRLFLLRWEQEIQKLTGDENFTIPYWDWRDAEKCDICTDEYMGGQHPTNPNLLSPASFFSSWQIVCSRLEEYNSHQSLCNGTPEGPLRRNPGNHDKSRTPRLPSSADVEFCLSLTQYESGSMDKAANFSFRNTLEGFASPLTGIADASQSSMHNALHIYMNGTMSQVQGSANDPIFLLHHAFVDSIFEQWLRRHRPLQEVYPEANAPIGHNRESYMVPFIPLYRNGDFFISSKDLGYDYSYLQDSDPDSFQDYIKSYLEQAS
Kind of test: In vitro tyrosine to melanin assay. The test is classed as biochemical. The settings on record: TMRL (60 μg) + 50 mM Arbutin.
Source text: At the completion of the reaction, samples were photographed and data analyzed further in the same manner described under the DOPA+MBTH section.

Test [2] has as its system insect cells expressing FL rHuTyrase. The experiment in a line: Visual examination of cell pellet prior to cell lysis. In kind it is cell-based. The settings on record: prior to cell lysis by sonication; control uninfected cells pale. An excerpt:
FIG. 2: Visual examination (prior to cell lysis by sonication) of the samples of cell pellet obtained in the case of insect cells expressing Full (FL) rHuTyrase (Example 1) as compared to the control uninfected cells (Example A).

Test [3] concerns human tyrosinase. The experiment in a line: DOPA (2 mM) oxidation assay in absence of MBTH, OD450 nm. The settings on record: 15 μg protein equivalent, OD450 nm after 90 min converted into ratio. The test is classed as biochemical. Here is the method:
DOPA oxidation activity was examined by a slightly modified version of the procedure earlier reported by Harris & Winder [Eur. J. Biochem. (1991) 198: 317-326], excluding Perchloric acid and Dimethylformamide but capturing a picture on reaction progress. Separately, in vitro melanin formation assay was carried out for 7 hrs. at 37° C., using a substrate mix (of 0.5 mM L-Tyrosine+15 μM L-DOPA) in 50 mM phosphate buffer (pH 6.8) and using indicated amounts of protein. This assay covers both tyrosine hydroxylation and DOPA oxidation activities together in the same run. Human melanocytic lysate served as the reference positive control and absence of any protein served as the no enzyme negative control (uncatalyzed background reaction) for these reactions. Assay volumes of 0.1 ml were adequate, indicating scalability for enhanced high throughput screening purposes.
When the activity of 15 μg protein equivalent recombinant human tyrosinase samples were tested in DOPA (2 mM) assay (in absence of MBTH), OD450 nm values reached after 90 min. (indication of extent of oxidation) were converted into a ratio form and are tabulated below: […]

Test [4] has as its system human tyrosinase. Kind of test: DOPA+MBTH solution phase tyrosinase enzymatic assay. As to conditions: gray scale intensity difference to Example D, relative to HML (Example B); 0 = transparent, close to 1 = activity comparable to HML. In kind it is biochemical. The protocol:
Standard western blot procedure was used to examine the extent of tyrosinase protein expression as well as determine optimal time point to harvest the cells. For scale up work, it was decided to use the insect cell line known as BTI-TN-5B1-4, sold under the tradename HIGHFIVE™ further. 100 ml scale growth of “infected” HIGHFIVE™ cells were carried out and both the spent media as well as the cell pellets were collected. The latter was lyzed by regular sonication method and the activity of the tyrosinase enzyme in various samples were tested using the typical DOPA oxidation and DOPA+MBTH coupling assays.
DOPA oxidation activity was examined by a slightly modified version of the procedure earlier reported by Harris & Winder [Eur. J. Biochem. (1991) 198: 317-326], excluding Perchloric acid and Dimethylformamide but capturing a picture on reaction progress. […]
Example E: Growth media supernatant in which above cells were grown Reaction samples were photographed and converted into gray scale intensity (GSI) by computer software digitization. Numerical differences (di) were calculated between GSI of any sample and that of reference control background sample (Example D). dmax was the maximal difference, that between HML (positive reference control, Example B) and the reference control background sample (Example D).

For the molecule `OC[C@H]1O[C@@H](Oc2ccc(O)cc2)[C@H](O)[C@@H](O)[C@@H]1O` [Arbutin], the “Scale ratio di/dmax (tyrosinase activity of TMRL with inhibitor)” value in test [1] is listed as 0.00.

B1: Example 1: Full length recombinant human tyrosinase, synthetic gene codon optimized for baculovirus expression in insect cells (protein, UniProt P14679 1-529, looked up)
chain: MLLAVLYCLLWSFQTSAGHFPRACVSSKNLMEKECCPPWSGDRSPCGQLSGRGSCQNILLSNAPLGPQFPFTGVDDRESWPSVFYNRTCQCSGNFMGFNCGNCKFGFWGPNCTERRLLVRRNIFDLSAPEKDKFFAYLTLAKHTISSDYVIPIGTYGQMKNGSTPMFNDINIYDLFVWMHYYVSMDALLGGSEIWRDIDFAHEAPAFLPWHRLFLLRWEQEIQKLTGDENFTIPYWDWRDAEKCDICTDEYMGGQHPTNPNLLSPASFFSSWQIVCSRLEEYNSHQSLCNGTPEGPLRRNPGNHDKSRTPRLPSSADVEFCLSLTQYESGSMDKAANFSFRNTLEGFASPLTGIADASQSSMHNALHIYMNGTMSQVQGSANDPIFLLHHAFVDSIFEQWLRRHRPLQEVYPEANAPIGHNRESYMVPFIPLYRNGDFFISSKDLGYDYSYLQDSDPDSFQDYIKSYLEQASRIWSWLLGAAMVGAVLTALLAGLVSLLCRHKRKQLPEEKQPLLMEKEDYHSLYQSHL
modifications: full-length recombinant, baculovirus-expressed
notes: Full length recombinant human tyrosinase, synthetic gene codon optimized for baculovirus expression in insect cells
For the molecule B1, in test [2], the “Colour of cell pellet (melanin like pigment within the cells)” value is listed as “black”.

B2: Example 6: FL lysate supernatant, 15 μg protein equivalent (protein, UniProt P14679 1-529, looked up)
chain: MLLAVLYCLLWSFQTSAGHFPRACVSSKNLMEKECCPPWSGDRSPCGQLSGRGSCQNILLSNAPLGPQFPFTGVDDRESWPSVFYNRTCQCSGNFMGFNCGNCKFGFWGPNCTERRLLVRRNIFDLSAPEKDKFFAYLTLAKHTISSDYVIPIGTYGQMKNGSTPMFNDINIYDLFVWMHYYVSMDALLGGSEIWRDIDFAHEAPAFLPWHRLFLLRWEQEIQKLTGDENFTIPYWDWRDAEKCDICTDEYMGGQHPTNPNLLSPASFFSSWQIVCSRLEEYNSHQSLCNGTPEGPLRRNPGNHDKSRTPRLPSSADVEFCLSLTQYESGSMDKAANFSFRNTLEGFASPLTGIADASQSSMHNALHIYMNGTMSQVQGSANDPIFLLHHAFVDSIFEQWLRRHRPLQEVYPEANAPIGHNRESYMVPFIPLYRNGDFFISSKDLGYDYSYLQDSDPDSFQDYIKSYLEQASRIWSWLLGAAMVGAVLTALLAGLVSLLCRHKRKQLPEEKQPLLMEKEDYHSLYQSHL
modifications: full-length insect cell lysate
notes: FL lysate supernatant, 15 μg protein equivalent
For the molecule B2, in the test on human tyrosinase [3], the “Scale ratio di/dmax (Extent of DOPA oxidation)” value came to 0.90.

B3: Example 3: Sonication lysate supernatant of HIGHFIVE cells expressing FL tyrosinase (protein, UniProt P14679 1-529, looked up)
chain: MLLAVLYCLLWSFQTSAGHFPRACVSSKNLMEKECCPPWSGDRSPCGQLSGRGSCQNILLSNAPLGPQFPFTGVDDRESWPSVFYNRTCQCSGNFMGFNCGNCKFGFWGPNCTERRLLVRRNIFDLSAPEKDKFFAYLTLAKHTISSDYVIPIGTYGQMKNGSTPMFNDINIYDLFVWMHYYVSMDALLGGSEIWRDIDFAHEAPAFLPWHRLFLLRWEQEIQKLTGDENFTIPYWDWRDAEKCDICTDEYMGGQHPTNPNLLSPASFFSSWQIVCSRLEEYNSHQSLCNGTPEGPLRRNPGNHDKSRTPRLPSSADVEFCLSLTQYESGSMDKAANFSFRNTLEGFASPLTGIADASQSSMHNALHIYMNGTMSQVQGSANDPIFLLHHAFVDSIFEQWLRRHRPLQEVYPEANAPIGHNRESYMVPFIPLYRNGDFFISSKDLGYDYSYLQDSDPDSFQDYIKSYLEQASRIWSWLLGAAMVGAVLTALLAGLVSLLCRHKRKQLPEEKQPLLMEKEDYHSLYQSHL
modifications: full-length insect cell lysate
In the case of B3, the “Scale ratio di/dmax (DOPA + MBTH Reaction)” value in the test with human tyrosinase [4] is given as 0.85.

B4: Example G: Commercially sourced E. coli (bacteria) expressed recombinant human tyrosinase (protein, UniProt P14679 19-529, looked up)
Tyrosinase: HFPRACVSSKNLMEKECCPPWSGDRSPCGQLSGRGSCQNILLSNAPLGPQFPFTGVDDRESWPSVFYNRTCQCSGNFMGFNCGNCKFGFWGPNCTERRLLVRRNIFDLSAPEKDKFFAYLTLAKHTISSDYVIPIGTYGQMKNGSTPMFNDINIYDLFVWMHYYVSMDALLGGSEIWRDIDFAHEAPAFLPWHRLFLLRWEQEIQKLTGDENFTIPYWDWRDAEKCDICTDEYMGGQHPTNPNLLSPASFFSSWQIVCSRLEEYNSHQSLCNGTPEGPLRRNPGNHDKSRTPRLPSSADVEFCLSLTQYESGSMDKAANFSFRNTLEGFASPLTGIADASQSSMHNALHIYMNGTMSQVQGSANDPIFLLHHAFVDSIFEQWLRRHRPLQEVYPEANAPIGHNRESYMVPFIPLYRNGDFFISSKDLGYDYSYLQDSDPDSFQDYIKSYLEQASRIWSWLLGAAMVGAVLTALLAGLVSLLCRHKRKQLPEEKQPLLMEKEDYHSLYQSHL
modifications: E. coli expressed
notes: Commercially sourced E. coli (bacteria) expressed recombinant human tyrosinase
With B4, in the test on human tyrosinase [3], the “Scale ratio di/dmax (Extent of DOPA oxidation)” value is given as 0.04.

For the origin of these results see patent US20160324751A1, “METHOD OF PREPARING RECOMBINANT HUMAN TYROSINASE” (Conopco, Inc., d/b/a UNILEVER, priority 2012, published 2016).
